Reference: patent US20260250352A1
Where two headings read alike, the source gives them in different places.

Assays:
[1] = target: recombinant human BAFF (human) (UniProt Q9Y275); test: cell-based or functional assay
[2] = target: recombinant human APRIL (human) (UniProt O75888); test: cell-based or functional assay
[3] = target: APRIL + BAFF in combination (human); test: cell-based or functional assay
[4] = target: recombinant mouse APRIL (mouse) (UniProt Q9D777); test: cell-based or functional assay
Sequence of recombinant mouse APRIL (mouse) (Q9D777 96-241 limits assumed): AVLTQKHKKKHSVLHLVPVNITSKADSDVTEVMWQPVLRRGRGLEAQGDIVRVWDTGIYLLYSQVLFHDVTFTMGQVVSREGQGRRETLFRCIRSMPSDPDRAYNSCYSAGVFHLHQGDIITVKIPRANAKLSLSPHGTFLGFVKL

[5] = target: recombinant human BAFF (human) (UniProt Q9Y275); test: cell-based or functional assay; remark: listed apart in the source
[6] = target: recombinant mouse BAFF (mouse) (UniProt Q9WU72); test: cell-based or functional assay
Sequence of recombinant mouse BAFF (mouse) (Q9WU72 127-309 limits assumed): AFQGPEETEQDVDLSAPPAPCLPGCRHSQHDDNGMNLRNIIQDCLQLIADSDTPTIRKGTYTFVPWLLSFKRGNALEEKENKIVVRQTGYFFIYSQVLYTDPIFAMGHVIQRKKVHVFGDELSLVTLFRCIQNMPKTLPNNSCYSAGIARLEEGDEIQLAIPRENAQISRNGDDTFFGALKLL

[7] = target: recombinant human APRIL (human) (UniProt O75888); test: cell-based or functional assay; remark: listed apart in the source
[8] = target: recombinant human BAFF (human) (UniProt Q9Y275)
[9] = target: BAFF 60-mer (human) (UniProt Q9Y275); test: cell-based or functional assay

Sequence of Atacicept (WT TACI-Fc with the atacicept sequence) (Fc fusion) (chain): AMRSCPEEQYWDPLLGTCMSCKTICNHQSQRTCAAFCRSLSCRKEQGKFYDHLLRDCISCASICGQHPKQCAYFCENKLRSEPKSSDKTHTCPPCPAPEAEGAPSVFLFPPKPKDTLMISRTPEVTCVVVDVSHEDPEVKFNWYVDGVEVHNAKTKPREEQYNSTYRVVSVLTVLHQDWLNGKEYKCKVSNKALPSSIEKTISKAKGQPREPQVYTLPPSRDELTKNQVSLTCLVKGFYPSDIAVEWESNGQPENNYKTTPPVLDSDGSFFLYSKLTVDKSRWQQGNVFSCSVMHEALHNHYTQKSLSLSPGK
Sequence of TACI WT 13 (G4S)4 (84) TACI WT 13 GSG4S (74) Fc 73 (Fc fusion) (chain): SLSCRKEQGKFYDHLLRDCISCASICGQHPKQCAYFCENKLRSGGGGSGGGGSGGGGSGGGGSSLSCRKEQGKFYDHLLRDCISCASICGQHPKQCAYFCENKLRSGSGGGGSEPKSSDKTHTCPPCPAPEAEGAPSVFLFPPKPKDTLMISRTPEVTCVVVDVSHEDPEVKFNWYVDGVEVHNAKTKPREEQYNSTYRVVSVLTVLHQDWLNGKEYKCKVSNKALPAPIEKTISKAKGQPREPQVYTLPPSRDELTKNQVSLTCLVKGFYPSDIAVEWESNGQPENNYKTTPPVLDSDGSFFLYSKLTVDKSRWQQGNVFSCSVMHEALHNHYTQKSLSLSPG
Sequence of TACI 30-110-Fc (Fc fusion) (chain): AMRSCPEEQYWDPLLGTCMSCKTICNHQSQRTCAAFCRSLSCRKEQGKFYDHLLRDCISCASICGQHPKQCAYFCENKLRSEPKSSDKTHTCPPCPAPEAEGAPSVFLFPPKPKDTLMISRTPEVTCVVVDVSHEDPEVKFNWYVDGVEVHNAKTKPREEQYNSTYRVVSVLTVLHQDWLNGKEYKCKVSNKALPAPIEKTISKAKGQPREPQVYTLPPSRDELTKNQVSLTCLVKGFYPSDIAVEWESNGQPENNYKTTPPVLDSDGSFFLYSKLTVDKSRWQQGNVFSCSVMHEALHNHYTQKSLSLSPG
Sequence of TACI 13-118-Fc (Fc fusion) (chain): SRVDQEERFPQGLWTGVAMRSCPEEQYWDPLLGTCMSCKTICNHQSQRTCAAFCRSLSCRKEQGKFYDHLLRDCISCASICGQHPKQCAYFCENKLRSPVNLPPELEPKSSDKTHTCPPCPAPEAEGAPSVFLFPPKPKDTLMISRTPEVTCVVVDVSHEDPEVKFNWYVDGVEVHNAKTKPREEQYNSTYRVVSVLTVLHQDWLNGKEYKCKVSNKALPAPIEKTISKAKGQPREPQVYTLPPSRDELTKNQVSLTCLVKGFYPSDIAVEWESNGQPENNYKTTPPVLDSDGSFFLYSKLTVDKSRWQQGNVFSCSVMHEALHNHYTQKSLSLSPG
Sequence of TACI WT 13 GSG4S (74) Fc 73 (G4S)4 (84) TACI WT 13 (Fc fusion) (chain): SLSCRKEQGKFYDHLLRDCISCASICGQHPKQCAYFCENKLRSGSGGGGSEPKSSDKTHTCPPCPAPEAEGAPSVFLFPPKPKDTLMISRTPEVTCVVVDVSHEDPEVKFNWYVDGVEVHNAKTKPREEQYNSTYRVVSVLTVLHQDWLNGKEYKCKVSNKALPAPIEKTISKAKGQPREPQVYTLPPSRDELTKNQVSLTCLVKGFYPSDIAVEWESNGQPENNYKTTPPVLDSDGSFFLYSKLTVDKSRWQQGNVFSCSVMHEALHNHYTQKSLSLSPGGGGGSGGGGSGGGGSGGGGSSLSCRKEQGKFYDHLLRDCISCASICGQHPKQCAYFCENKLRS
Sequence of WT TACI 13-118-Fc based on the published telitacicept sequence (Fc fusion) (chain): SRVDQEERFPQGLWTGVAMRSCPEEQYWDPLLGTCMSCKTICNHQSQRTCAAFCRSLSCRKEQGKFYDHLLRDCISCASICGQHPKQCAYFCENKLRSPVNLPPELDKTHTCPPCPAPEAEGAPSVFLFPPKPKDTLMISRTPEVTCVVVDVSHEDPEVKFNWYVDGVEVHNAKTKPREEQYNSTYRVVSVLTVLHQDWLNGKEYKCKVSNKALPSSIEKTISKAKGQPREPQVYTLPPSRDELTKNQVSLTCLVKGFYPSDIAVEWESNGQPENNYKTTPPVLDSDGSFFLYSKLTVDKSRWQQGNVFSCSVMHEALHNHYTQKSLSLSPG

**Q.** “185 TACI CRD2-Fc (F78Y, A101D) (Fc fusion)” was tested. Which IC50, Jurkat/NF-kB/TACI reporter [1] did it give?
**A.** 1.85 nM

**Q.** What about the IC50 relative to WT TACI (68-110)-Fc (Δ WT) [1] of the same substance?
**A.** 1

**Q.** What about the IC50, Jurkat/NF-kB/TACI reporter [2] of the same substance?
**A.** 2.02 nM

**Q.** What about the IC50 relative to WT TACI (68-110)-Fc (Δ WT) [2] of the same substance?
**A.** 0.16

**Q.** What does the source list for “186 TACI CRD2-Fc (F78Y, Y102D) (Fc fusion)”?
**A.** IC50, Jurkat/NF-kB/TACI reporter [1]: 1.96 nM; IC50 relative to WT TACI (68-110)-Fc (Δ WT) [1]: 1.06; IC50, Jurkat/NF-kB/TACI reporter [2]: 8.49 nM; IC50 relative to WT TACI (68-110)-Fc (Δ WT) [2]: 0.69

**Q.** With “187 TACI CRD2-Fc (R84Q, A101D) (Fc fusion)” as the substance, how does the IC50, Jurkat/NF-kB/TACI reporter [1] read?
**A.** 2.35 nM

**Q.** What about the IC50 relative to WT TACI (68-110)-Fc (Δ WT) [1] of the same substance?
**A.** 1.27

**Q.** And the IC50, Jurkat/NF-kB/TACI reporter [2]?
**A.** 11.2 nM

**Q.** What about the IC50 relative to WT TACI (68-110)-Fc (Δ WT) [2] of the same substance?
**A.** 0.91

**Q.** How did the IC50, Jurkat/NF-kB/TACI reporter [1] turn out when “188 TACI CRD2-Fc (R84Q, Y102D) (Fc fusion)” was run?
**A.** 1.86 nM

**Q.** And the IC50 relative to WT TACI (68-110)-Fc (Δ WT) [1]?
**A.** 1.01

**Q.** What about the IC50, Jurkat/NF-kB/TACI reporter [2] of the same substance?
**A.** 12.3 nM

**Q.** And the IC50 relative to WT TACI (68-110)-Fc (Δ WT) [2]?
**A.** 1

**Q.** What does the source list for “189 TACI CRD2-Fc (A101D, Y102D) (Fc fusion)”?
**A.** IC50, Jurkat/NF-kB/TACI reporter [1]: 1.95 nM; IC50 relative to WT TACI (68-110)-Fc (Δ WT) [1]: 1.05; IC50, Jurkat/NF-kB/TACI reporter [2]: 33.6 nM; IC50 relative to WT TACI (68-110)-Fc (Δ WT) [2]: 2.72

**Q.** What does the source list for 190 TACI CRD2-Fc (Y102D) (Fc fusion)?
**A.** IC50, Jurkat/NF-kB/TACI reporter [1]: 1.86 nM; IC50 relative to WT TACI (68-110)-Fc (Δ WT) [1]: 1; IC50, Jurkat/NF-kB/TACI reporter [2]: 11.6 nM; IC50 relative to WT TACI (68-110)-Fc (Δ WT) [2]: 0.94

**Q.** Which results are given for “191 TACI CRD2-Fc (K77E, F78Y) (Fc fusion)”?
**A.** IC50, Jurkat/NF-kB/TACI reporter [1]: 1.97 nM; IC50 relative to WT TACI (68-110)-Fc (Δ WT) [1]: 1.06; IC50, Jurkat/NF-kB/TACI reporter [2]: 10.1 nM; IC50 relative to WT TACI (68-110)-Fc (Δ WT) [2]: 0.82

**Q.** With “192 TACI CRD2-Fc (K77E, Y102D) (Fc fusion)” as the substance, how does the IC50, Jurkat/NF-kB/TACI reporter [1] read?
**A.** 2.18 nM

**Q.** What about the IC50 relative to WT TACI (68-110)-Fc (Δ WT) [1] of the same substance?
**A.** 1.17

**Q.** And the IC50, Jurkat/NF-kB/TACI reporter [2]?
**A.** 0.891 nM

**Q.** What about the IC50 relative to WT TACI (68-110)-Fc (Δ WT) [2] of the same substance?
**A.** 0.07

**Q.** Which IC50, Jurkat/NF-kB/TACI reporter [3] does the source give for “Atacicept (WT TACI-Fc with the atacicept sequence) (Fc fusion)” here?
**A.** 7.72 nM

**Q.** And the IC50, TACI/Jurkat/NF-kB reporter [3]?
**A.** > 200 nM

**Q.** And the IC50, TACI/Jurkat/NF-kB reporter [4]?
**A.** 18 nM

**Q.** What about the IC50, Jurkat/NF-kB/TACI reporter [5] of the same substance?
**A.** 8.29 nM

**Q.** And the IC50, TACI/Jurkat/NF-kB reporter [5]?
**A.** 20.8 nM

**Q.** What about the IC50, TACI/Jurkat/NF-kB reporter [6] of the same substance?
**A.** 9 nM

**Q.** What about the IC50, Jurkat/NF-kB/TACI reporter [7] of the same substance?
**A.** 9.26 nM

**Q.** What about the IC50, TACI/Jurkat/NF-kB reporter [7] of the same substance?
**A.** > 200 nM

**Q.** And the IC50, Jurkat/NF-kB/TACI reporter [1]?
**A.** 7.74 nM

**Q.** What about the IC50 relative to WT TACI (68-110)-Fc (Δ WT) [1] of the same substance?
**A.** 4.17

**Q.** For BAFF-R ECD (receptor), which IC50, Jurkat/NF-kB/TACI reporter [1] is on record?
**A.** 53.2 nM

**Q.** What about the IC50 relative to WT TACI (68-110)-Fc (Δ WT) [1] of the same substance?
**A.** 28.7

**Q.** How did the IC50, Jurkat/NF-kB/TACI reporter [5] turn out when “TACI 13-118, with K77E/F78Y/Y102D, Fc fusion” was run?
**A.** 2050 nM

**Q.** What about the IC50 relative to TACI 30-110 [5] of the same substance?
**A.** 0.46

**Q.** What about the IC50, Jurkat/NF-kB/TACI reporter [7] of the same substance?
**A.** 848 nM

**Q.** And the IC50 relative to TACI 30-110 [7]?
**A.** 0.2

**Q.** What about the IC50, Jurkat/NF-kB/TACI reporter [1] of the same substance?
**A.** 1.99 nM

**Q.** What about the IC50 relative to WT TACI (68-110)-Fc (Δ WT) [1] of the same substance?
**A.** 1.07

**Q.** What about the IC50, Jurkat/NF-kB/TACI reporter [2] of the same substance?
**A.** 13.2 nM

**Q.** What about the IC50 relative to WT TACI (68-110)-Fc (Δ WT) [2] of the same substance?
**A.** 1.07

**Q.** What does the source list for TACI 13-118-Fc (Fc fusion)?
**A.** IC50 (read off the curve), human BAFF, NF-κB luciferase reporter, TACI/Jurkat/NF-κB cells [8]: 20 nM; IC50, Jurkat/NF-kB/TACI reporter [5]: 7700 nM; IC50 relative to TACI 30-110 [5]: 1.88; IC50 relative to TACI 30-110-Fc [5]: 1.33; IC50, Jurkat/NF-kB/TACI reporter [7]: 7810 nM; IC50 relative to TACI 30-110 [7]: 1.81; IC50 relative to TACI 30-110-Fc [7]: 2.37; IC50, Jurkat/NF-kB/TACI reporter [1]: 7.91 nM; IC50 relative to WT TACI (68-110)-Fc (Δ WT) [1]: 4.26

**Q.** What does the source list for TACI 30-110-Fc (Fc fusion)?
**A.** IC50 (read off the curve), human BAFF, NF-κB luciferase reporter, TACI/Jurkat/NF-κB cells [8]: 20 nM; IC50, Jurkat/NF-kB/TACI reporter [5]: 4490 nM; IC50 relative to TACI 30-110 [5]: 1; IC50 relative to TACI 30-110-Fc [5]: 1; IC50, Jurkat/NF-kB/TACI reporter [7]: 4320 nM; IC50 relative to TACI 30-110 [7]: 1; IC50 relative to TACI 30-110-Fc [7]: 1; IC50, TACI/Jurkat/NF-kB reporter [9]: > 100 nM

**Q.** What does the source list for “TACI WT 13 (G4S)4 (84) TACI WT 13 GSG4S (74) Fc 73 (Fc fusion)”?
**A.** IC50, Jurkat/NF-kB/TACI reporter [5]: 3.29 nM; IC50, Jurkat/NF-kB/TACI reporter [7]: 34.6 nM; IC50, Jurkat/NF-kB/TACI reporter [9]: 4.33 nM

**Q.** With “TACI WT 13 GSG4S (74) Fc 73 (G4S)4 (84) TACI WT 13 (Fc fusion)” as the substance, how does the IC50, Jurkat/NF-kB/TACI reporter [5] read?
**A.** 1.04 nM

**Q.** What about the IC50, Jurkat/NF-kB/TACI reporter [7] of the same substance?
**A.** 11.9 nM

**Q.** What about the IC50, Jurkat/NF-kB/TACI reporter [9] of the same substance?
**A.** 2.58 nM

**Q.** With “WT TACI 13-118-Fc based on the published telitacicept sequence (Fc fusion)” as the substance, how does the IC50, TACI/Jurkat/NF-kB reporter [3] read?
**A.** > 200 nM
